# Reference: patent US20020156245A1
# Target: human Ptch (SEQ ID NO:4) (human) (UniProt Q13635)
# Assay: Scatchard analysis of displacement of 125I-Shh from 293 cells expressing Ptch
row,Kd [nM],Substance
1,1,"Shh (SEQ ID NO:14), 19 kD amino terminal fragment of murine Shh (from UniProt Q62226 25-198) (ligand)"
2,1,Ihh (SEQ ID NO:29) (from UniProt P97812 28-202) (ligand)
3,2.6,Dhh (SEQ ID NO:13) (from UniProt Q61488 23-198) (ligand)
